Where a chain is given by its changes, count along the chain named. Blank lines part the entries; values can stand above or below the binder they belong to.
Legend:
[1] = target: T1, cynomolgus 5T4 on transfected CHO cells (Macaca mulatta (cynomolgus), UniProt F7CT46 35-420); assay: flow cytometry, 5T4-transfected CHO cells
T1 construct: also called cyno5T4; cy5T4
T1 sequence: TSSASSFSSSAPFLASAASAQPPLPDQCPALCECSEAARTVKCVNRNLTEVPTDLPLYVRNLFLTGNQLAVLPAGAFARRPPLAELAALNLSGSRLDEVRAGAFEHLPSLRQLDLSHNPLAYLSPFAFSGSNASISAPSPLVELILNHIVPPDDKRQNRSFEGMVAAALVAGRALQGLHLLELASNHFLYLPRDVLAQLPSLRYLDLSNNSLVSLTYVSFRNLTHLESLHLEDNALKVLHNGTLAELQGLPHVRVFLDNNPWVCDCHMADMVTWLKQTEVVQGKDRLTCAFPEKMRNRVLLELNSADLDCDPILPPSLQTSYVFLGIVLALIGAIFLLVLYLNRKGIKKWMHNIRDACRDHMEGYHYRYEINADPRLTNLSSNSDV
Description: The potency of 5T4 antibodies in binding to cynomolgus 5T4 was determined by flow cytometry. CHO cells were stably transfected with […] (cynomolgus) 5T4. […] Samples were analysed either on a FACSCalibur or a FACSverse (BD Biosciences, Heidelberg, Germany) and mean fluorescence intensity (MFI) determined. […] To compare the EC50 values between human and cynomolgus 5T4, the cy5T4/hu5T4 ratio was calculated from the experiment with the full dose-response.

[2] = target: T2, human/mouse 5T4 chimera E1; assay: flow cytometry, cells with human/mouse 5T4 chimera
T2 construct: on transfected CHO cells
Description: (§1) Epitope mapping was performed by investigation of loss of binding by the antibodies using a panel of human/mouse chimeric 5T4 constructs by flow cytometry. […] Two strategies were used for the epitope mapping as illustrated in FIG. 5. In one approach, seven human/mouse 5T4 chimeras were constructed based on dividing 5T4 into seven different domains (FIG. 5). By replacing each domain with the corresponding mouse sequence seven human/mouse 7 5T4 human/mouse chimeras were generated. The chimeras were generated using the human protein 5T4 sequence NP_006661.1 (reference mRNA sequence NM_006670.4) and the corresponding mouse sequence NP_035757.2 (reference mRNA sequence NM_011627.4). The human/mouse chimeric DNA constructs, as well as human and mouse wild-type 5T4, were cloned into pcDNA3.1 expression vectors. […] As controls human 5T4 and mouse 5T4-transfected cells were used. For flow cytometric analysis, cells were stained with different 5T4 antibodies diluted in FACS buffer (PBS, 0.5% BSA). […] Samples were analysed by FACSverse (BD Biosciences, Heidelberg, Germany) and % positive cells were determined. To compensate for variations in % 5T4 positive cells in the various transfected populations, binding levels were normalized within each chimera by dividing % positive cells for each clone with % positive cells for the clones resulting in the highest % positive cells (% pos cellscloneX/% positive cellsₘₐₓ). A normalized value ≤0.75 was defined as mAb binding being dependent on the replaced region, whereas a normalized value ≤0.25 was defined as complete dependence.

[3] = target: T3, human/mouse 5T4 chimera E2; assay: flow cytometry, cells with human/mouse 5T4 chimera
T3 construct: on transfected CHO cells
Description: as §1

[4] = target: T4, human/mouse 5T4 chimera E3; assay: flow cytometry, cells with human/mouse 5T4 chimera
T4 construct: on transfected CHO cells
Description: as §1

[5] = target: T5, human/mouse 5T4 chimera E4; assay: flow cytometry, cells with human/mouse 5T4 chimera
T5 construct: on transfected CHO cells
Description: as §1

[6] = target: T6, human/mouse 5T4 chimera E5; assay: flow cytometry, cells with human/mouse 5T4 chimera
T6 construct: on transfected CHO cells
Description: as §1

[7] = target: T7, human/mouse 5T4 chimera E6; assay: flow cytometry, cells with human/mouse 5T4 chimera
T7 construct: on transfected CHO cells
Description: as §1

[8] = target: T8, human/mouse 5T4 chimera E7; assay: flow cytometry, cells with human/mouse 5T4 chimera
T8 construct: on transfected CHO cells
Description: as §1

5T4 (SPR antigen) [9] = target: T9, 5T4 (SPR antigen) (UniProt Q13641 32-355, limits assumed, biotinylated on the MASS-1 platform); assay: SPR Biacore 3000, amine-coupled 5T4, mAb injected (bivalent)
T9 construct: also called biotinylated 5T4
T9 sequence (looked up): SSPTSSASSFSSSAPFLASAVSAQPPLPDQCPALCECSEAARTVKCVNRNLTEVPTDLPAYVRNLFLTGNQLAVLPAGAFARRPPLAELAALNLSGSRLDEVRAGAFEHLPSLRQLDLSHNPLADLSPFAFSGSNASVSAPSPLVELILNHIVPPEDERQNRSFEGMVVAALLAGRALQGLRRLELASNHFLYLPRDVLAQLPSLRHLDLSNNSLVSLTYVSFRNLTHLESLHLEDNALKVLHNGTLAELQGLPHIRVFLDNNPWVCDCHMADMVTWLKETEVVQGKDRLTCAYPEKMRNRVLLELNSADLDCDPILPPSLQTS
Description: Binding kinetics of the 5T4-specific mAbs have been studied using two different SPR-based platforms, the Biacore 3000 (GE Healthcare) and the MASS-1 platform (Sierra Sensors). Briefly, 5T4 was captured at the sensor chip surface either via direct amine coupling (Biacore platform) or using a streptavidin coated chip and biotinylated 5T4 (MASS-1 platform). The different 5T4-specific mAbs were then injected over the chip in increasing concentrations and the association and dissociation rates studied in real time. A 1:1 Langmuir model was used for curve fitting.

5T4 (SPR antigen) [10] = target: T9, 5T4 (SPR antigen); assay: SPR MASS-1, biotinylated antigen on streptavidin chip, parental mAb

- Ratio EC50cyno5T4/h5T4 [1]: 0.9
- normalized % positive cells [2]: 0.99
- normalized % positive cells [3]: 0.02
- normalized % positive cells [4]: 0.9
- normalized % positive cells [5]: 0.69
- normalized % positive cells [6]: 0.89
- normalized % positive cells [7]: 0.89
- normalized % positive cells [8]: 0.96
- Kd (5T4 (SPR antigen) [9]): 0.2 nM
- koff (5T4 (SPR antigen) [9]): 0.0001 s⁻¹
- kon (5T4 (SPR antigen) [9]): 500000 M⁻¹ s⁻¹
- Kd (5T4 (SPR antigen) [10]): 0.437 nM
B1: 1210/1211 (antibody, V domains shown)
VH: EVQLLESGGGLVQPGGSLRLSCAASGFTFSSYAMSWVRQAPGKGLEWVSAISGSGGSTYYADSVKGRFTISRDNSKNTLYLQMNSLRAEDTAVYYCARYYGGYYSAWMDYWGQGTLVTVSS
VL: DIQMTQSPSSLSASVGDRVTITCRASQSISSYLNWYQQKPGKAPKLLIYAASSLQSGVPSRFSGSGSGTDFTLTISSLQPEDFATYYCQQTYGYLHTFGQGTKLEIK

- Ratio EC50cyno5T4/h5T4 [1]: 3
- normalized % positive cells [2]: 0.96
- normalized % positive cells [3]: 0.74
- normalized % positive cells [4]: 0.25
- normalized % positive cells [5]: 0.52
- normalized % positive cells [6]: 0.9
- normalized % positive cells [7]: 0.94
- normalized % positive cells [8]: 0.94
- Kd (5T4 (SPR antigen) [9]): 2.3 nM
- koff (5T4 (SPR antigen) [9]): 0.00028 s⁻¹
- kon (5T4 (SPR antigen) [9]): 130000 M⁻¹ s⁻¹
B2: 1206/1207 (antibody, V domains shown)
VH: EVQLLESGGGLVQPGGSLRLSCAASGFTFSGSSMSWVRQAPGKGLEWVSSIYYSGSGTYYADSVKGRFTISRDNSKNTLYLQMNSLRAEDTAVYYCARYGRNVHPYNLDYWGQGTLVTVSS
VL: B1 VL with T91G, G93Y, H96P

Source: patent US20190169308A1 (ALLIGATOR BIOSCIENCE, published 2019)
